Columns and labels:
rabbit VEGF (rabbit) = rabbit VEGF (rabbit) (UniProt G1T1L9); experiment: SPR, summary table, column Rabbit VEGF, Kd [M]
[1] = molecular target: recombinant human VEGF (human) (UniProt P15692); experiment: cell-based or functional assay
recombinant human VEGF (human), sequence (P15692 other isoform, or with tags, fused parts or gaps limits assumed): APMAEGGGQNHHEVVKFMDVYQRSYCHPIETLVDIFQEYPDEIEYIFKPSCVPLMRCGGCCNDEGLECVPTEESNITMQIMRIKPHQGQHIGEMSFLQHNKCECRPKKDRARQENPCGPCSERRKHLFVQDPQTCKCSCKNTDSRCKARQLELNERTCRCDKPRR

Kd (rabbit VEGF (rabbit)): 1.41 nM | IC50, VEGF reporter assay (KDR/NFAT-RE HEK293 cells, luminescence) [1]: 0.75 nM
Substance: aflibercept (Fc fusion)
